Laboratory results: US20180009892A1 (EUREKA THERAPEUTICS, published 2018)
Residue numbers refer to the chain shown, from its start.

B1: P601-101 (scFv, V domains shown)
VH: EVQLVQSGNEVKRPGASVKVSCKASGHSFSTYGFSWVRQAPGQGLEWMGWISTYNGNTNYAQKLQGRVTMTTDTSTSTAYMELRSLRSDDTAVYYCARDYYSDSSGYWDDAFDIWGQGTLVTVSS
VL: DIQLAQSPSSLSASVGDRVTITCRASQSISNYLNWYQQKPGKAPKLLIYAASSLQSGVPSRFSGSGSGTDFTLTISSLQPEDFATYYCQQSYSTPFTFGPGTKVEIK
B2: P601-13 (scFv, V domains shown)
VH: EVQLVQSGAEVKKPGSSVKVSCKASGGTFSTFAINWVRQAPGQGLEWMGGVIPVSGTEDYSQKFQGRLSLTADESTGTAYMELSSLRSDDTAVYYCARDRSGRDWDYFDYWGQGTLVTVSS
VL: DIVMTQSPSSLSASVGDRVTITCQASQDISNYLNWYQQKPGKAPKLLIYDASNLETGVPSRFSGSGSGTDFIFTISSLQPEDIATYYCQQFDNLPYTFGQGTKVEIKR
B3: P601-130 (scFv, V domains shown)
VH: EVQLVETGGGLVKPGGSLRLSCEASGFSLSSYSMNWVRQAPGKGLEWVSSISSSSTHIYYADSLKGRFTISRDNAKNSLFLQMDNLRAEDTAVYYCARATIGFDYWGQGTLVTVSS
VL: QSVLTQPPSVSGAPGQRVTISCTGSSSNIGAGYDVHWYQQLPGTAPKLLIYGNSNRPSGVPDRFSGSKSGTSASLAITGLQAEDEADYYCQSYDSSLSGYVFGTGTKLTVL
B4: P601-87 (scFv, V domains shown)
VH: QVQLQESGPGLVKSSETLSLTCTVSGGSMNNYYWSWIRQPAGKGLEWMGRIYSSGSTNYNPALKSRVTMSVDTSKNQFSLNLSSVTAADTAIYYCARASWSGTYWALFDYWGQGTLVTVSS
VL: ETTLTQSPAFMSATPGDKVNISCKASQDIDDDLNWYQQKPGEAPILIIQEATTLVPGIPPRFSGSGFGTDFTLTINSMQSEDVAYYFCLQHDNFPPTFGQGTKVEIK
B5: P601-66 (scFv, V domains shown)
VH: QVQLVQSGAEVKEPGASVKVSCKASGYTFRNSGITWVRQAPGQGLEWMGWINPNSGGAMYVDNFQGRATMTRDTSINTAYMELRSLSSDDTAVYYCARGMADLIDVFDIWGQGTLVTVSS
VL: TQPALTQPASVSGSPGQSITISCTGTSSDFGDYDYVSWYQQHPGKAPKLMIYDVSDRPSGVSNRFSGSKSGNTASLTISGLQAEDEADYFCSSFTTSSTLVFGGGTKLTVL
B6: P601-137 (scFv, V domains shown)
VH: QVQLQQSGAEVKKPGASVKVSCKASGYTFSRYYIHWVRQAPGQGLEWMGIINTDGGTTTYAQKFQGRLTMTRDTSTSTVYMELSSLRSDDTAVYYCARDYGTIDARRFDYWGQGTLVTVSS
VL: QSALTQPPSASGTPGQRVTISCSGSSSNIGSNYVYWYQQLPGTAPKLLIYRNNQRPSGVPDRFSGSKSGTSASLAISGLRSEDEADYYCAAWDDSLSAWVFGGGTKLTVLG
B7: P601-136 (scFv, V domains shown)
VH: B6 VH with Q5V, I50L, T53P, D54G, T57S, T59N, L68V, S77N, M81L, Y110F
VL: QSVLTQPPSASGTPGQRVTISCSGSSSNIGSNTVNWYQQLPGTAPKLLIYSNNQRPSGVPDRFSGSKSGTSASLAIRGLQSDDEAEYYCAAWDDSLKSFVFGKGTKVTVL
B8: P601-40 (scFv, V domains shown)
VH: QVQLQQSGAEVKKPGASVKVSCKASGYTSTNYGISWVRQAPGQGLEWMGWISTYNGNTNYAQKLQGRVTMTTDTSTSTAYMELRSLRSDDTAVYYCARDYYSDSSGYWDDAFDIWGQGTMVTVSS
VL: DIQLTQSPSSLSASVGDRVTITCRASQNINNYLNWYQQKPGKAPKLLLYAASSLQSGVPSRFSGSGSGTEFTLTISSLHPEDFATYYCQQSYNTPFTFGPGTKVDIKR
B9: P601-112 (scFv, V domains shown)
VH: EVQLVQSGGDLVQPGGSLRLSCAASGFTFSSYSMNWVRQAPGKGLEWVSSISSSSSYIYYADSVKGRFTISRDNAKNSLYLQMNSLRAEDTAVYYCARGLGGWTHDAFDIWGQGTTVTVSS
VL: QSALTQPASVSGSPGQSITISCTGTSSDVGGYNYVSWYQQHPGKAPKLMIYDVSKRPSGVSNRFSGSKSGNTASLTISGLQAEDEADYYCSSYTGRSTVFGGGTKLTVL
B10: P601-109 (scFv, V domains shown)
VH: B9 VH with E1Q, V2M
VL: QSALTQPASVSGSPGQSITISCTGTSSDVGGYNYVSWYQQHPGKAPKLLIYEVSQRPSGVPDRFSGSKSGNTASLTVSGLQAEDEADYYCSSYAGDRDVFGTGTQLTVLS
B11: P601-100 (scFv, V domains shown)
VH: B9 VH with D10G, L11V, S17P, T116M
VL: QSALTQPASVSGSPGQSITISCTGTSRDVGGYDYVSWYQQYPGNAPKLMIYDVSRRPSGVSHRFSASKSGNTASLTISGLQTEDEADYYCSSYTSSSTRVFGGGTKVTVL
B12: P601-120 (scFv, V domains shown)
VH: B9 VH
VL: B11 VL with R27S, D33N, Y41H, N44K, R55N, H62N, A66G, T82A, V107L
B13: P601-103 (scFv, V domains shown)
VH: B9 VH
VL: QSVLTQPASVSGSPGQSITISCTGTTSDVGGYNYVSWYQQHPGKAPKLMIYDVSKRPSGVSNRFSGSKSGNTASLTISGLQAEDEADYYCSSYTSSSTDVFGTGTKLTVL
B14: P601-110 (scFv, V domains shown)
VH: B9 VH with E1Q
VL: QSALTQPASVSGSPGQSITLSCTGTSSDVGGYNYVSWYQQHPGNGPKLIIYDVTKRPSGVSNRFSGSKSGNTAYLTISGLQAEDEADYYCASYTRSTTLVFGGGTKLTVL
B15: P601-6 (scFv, V domains shown)
VH: EVQLVESGGGLVKPGGSLKLSCAASGFTFSDYYMGWVRQAPGKGLKWLSYISDRAHTIYDTHSVKGRFTISRDDAKSSLYLRMNNLRVEDTAVYYCARAVGAGEGFDYWCQGTLVTVSS
VL: DIQMTQSPSSLSASVGDRVTITCQASQDIRNYLNWYQQKPGKAPKLLIYAASNLETGVPSRFSGSGSGTDFTFTISSLQPEDIATYYCQQDDNLPLTFGGGTKLEIK
B16: P601-149 (scFv, V domains shown, not shown: large carriers; small tags and cut ends)
VH: B15 VH with V2A, K19R, H62D, C110G
VL: B15 VL with M4L, I29V, K45N, A50D, S52T, T56S, I83F, D91Y, T97S, L104V
B17: P601-86 (scFv, V domains shown)
VH: QVTLKESGPTLLKPTQTLTLTCTFSGFSLSTRGVGVGWIRQPPGQALEWLTLIYWDDDKRYSPSLKSRLTITKDTSKNQVVLTMTNMESVDTATYYCAQQTMTGAFDIWGQGTTVTVSS
VL: DIQMTQSPSSVSASVGDRVTITCRASQGISTLLAWYQQKPGKAPKLLISSASSLQSGVPARFSGSGSGTDFTLTISSLQPEDFATYYCQQSYRAPTFGQGTKVEIKR
B18: P601-65 (scFv, V domains shown)
VH: QVQLQQSGPGLVKPSQTLSLTCAISGDSVSSNSATWNWIRQSPSRGLEWLGRTYYRSKWYNDYAVSVKSRIIINPDTSKNQFSLQLNSVTPEDTAVYYCARGVRAFDIWGQGTTVTVSS
VL: QSVLTQPPSVSGTPGQRVTIFCSGGSNNIGRSSVYWYRQAAGTAPKLLIYKTDQRPSGVPDRFAASKSGASASLAISGLRSEDEADYHCATWDDSLSAVVFGGGTKLTVL
B19: P601-153 (scFv, V domains shown, not shown: large carriers; small tags and cut ends)
VH: QMQLVQSGAEVKKPGASVKVSCKASGYTFTSYYMHWVRQAPGQGLEWMGIINPSGGSTSYAQKFQGRVTMTRDTSTSTVYMELSSLRSEDTAVYYCARGGYTGWSPSDPWGQGTLVTVSS
VL: B13 VL with V3A, T26S, L48F, S91G, Y93F, S97I, D99Y, L107V
B20: P601-81 (scFv, V domains shown)
VH: EVQLVESGGGVVRPGGSLRLSCATSGFNFDNYGLSWVRQGPGKGLEWMGFIYKSVNTNYSPSLKSRLTISMDTSKNQFSLNLASVTTADTAIYYCARGKVETSVVDYWGQGTLVTVSS
VL: NFMLTQPRSVSESPGKTVTISCTGNGGRVANNYVQWYQQRPGSAPTTVIYEDNQRPSGVPARFSGSIDSSSNSASLTISGLKTDDEADYYCQSYDISNQRVFGGGTKLTVL
B21: P601-3 (scFv, V domains shown)
VH: QVTLKESGPTLVKPTQTLTLTCTFSGFSLNSFGVAVGWFRQPPGKALEWLGLIYWDDDRRYFPSLEGRLSITKDASDNNVVLTMMNVDPADTATYYCARTSPMVQGIANYYAMDVWGQGTTVTVSS
VL: not shown
B22: P601-2 (scFv, V domains shown)
VH: QVTLKESGPTLVKPTQTLTLTCTFSGFSLSSFGVAVGWFRQPPGKALEWLGLIYWDDDKRYSPSLKTRLTITKDTSKNQVVLTMTNMDPVDTATYYCAHKGGIATTGSPNWFDPWGQGTLVTVSS
VL: not shown
B23: P601-5 (scFv, V domains shown)
VH: B15 VH with K19R, H62D, C110G
VL: not shown

Target: T1, human ROR1 extracellular domain (ECD) protein (human, UniProt Q01973 30-406)
T1 construct: also called hROR1-ECD; human ROR1-ECD
T1 sequence (Q01973 30-406 limits assumed): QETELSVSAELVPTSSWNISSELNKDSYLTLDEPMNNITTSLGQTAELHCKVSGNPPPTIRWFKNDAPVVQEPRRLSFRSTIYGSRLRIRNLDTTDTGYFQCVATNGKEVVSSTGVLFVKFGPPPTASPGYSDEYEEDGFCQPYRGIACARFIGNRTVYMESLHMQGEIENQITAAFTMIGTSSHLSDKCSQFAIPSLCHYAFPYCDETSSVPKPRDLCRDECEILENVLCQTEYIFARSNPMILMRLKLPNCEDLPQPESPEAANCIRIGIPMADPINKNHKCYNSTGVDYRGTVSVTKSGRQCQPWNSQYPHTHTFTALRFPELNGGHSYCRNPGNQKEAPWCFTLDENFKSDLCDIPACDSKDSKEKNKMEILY
Experiment: competitive phage ELISA: soluble ROR1 against ROR1-coated plate
Description: Purified phage antibodies were first diluted serially in PBST buffer, and tested for binding to a ROR1-coated plate. The dilution that gave 50-80% saturating signal was used in the solution binding assay in which phage were first incubated with increasing concentration of ROR1 for one to two hours, and then transferred to a ROR1-coated plate for 10-15 minutes to capture the unbound phage.

Row | Binder | IC50 [nM]
1 | B1 | 1.5
2 | B2 | 1.21
3 | B3 | 3.08
4 | B4 | 3.86
5 | B5 | 4.05
6 | B6 | 1.82
7 | B7 | 3.02
8 | B8 | 0.2
9 | B9 | 2.89
10 | B10 | 0.22
11 | B11 | 5.8
12 | B12 | 1.92
13 | B13 | 8.72
14 | B14 | 4.57
15 | B15 | 2.12
16 | B16 | 2.76
17 | B17 | 1.84
18 | B18 | 4.23
19 | B19 | 1.53
20 | B20 | 2.76

Target: T2, human ROR2-ECD (human, UniProt Q01974 34-403)
T2 construct: extracellular domain; also called hROR2
T2 sequence (Q01974 34-403): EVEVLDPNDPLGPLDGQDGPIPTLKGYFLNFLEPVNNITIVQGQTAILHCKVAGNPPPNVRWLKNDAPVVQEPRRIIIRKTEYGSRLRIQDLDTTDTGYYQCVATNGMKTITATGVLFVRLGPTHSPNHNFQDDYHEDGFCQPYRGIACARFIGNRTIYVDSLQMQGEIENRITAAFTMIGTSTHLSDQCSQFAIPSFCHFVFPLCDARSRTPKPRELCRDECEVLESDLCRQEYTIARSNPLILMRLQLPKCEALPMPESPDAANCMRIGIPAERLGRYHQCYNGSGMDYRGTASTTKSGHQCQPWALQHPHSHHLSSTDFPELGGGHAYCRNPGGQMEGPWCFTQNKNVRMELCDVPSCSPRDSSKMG
Experiment: protein ELISA, phage

Row | Binder | binding result
21 | B1 | no binding
22 | B2 | no binding
23 | B3 | no binding
24 | B4 | no binding
25 | B21 | no binding
26 | B22 | no binding
27 | B6 | no binding
28 | B7 | no binding
29 | B8 | no binding
30 | B9 | no binding
31 | B10 | no binding
32 | B11 | no binding
33 | B12 | no binding
34 | B13 | no binding
35 | B14 | no binding
36 | B23 | no binding
37 | B17 | no binding
38 | B18 | no binding
39 | B20 | no binding
